Experimental data from paper PMC6442593.
Where “and” joins values, the source holds several entries; their conditions need not be identical. Equal values may be shown once.

Molecular target: uPAR-tagged soluble human GPIHBP1-S107C (human) (UniProt Q8IV16)
Assay: density gradient ultracentrifugation

With “uPAR-tagged soluble human GPIHBP1-S107C (from UniProt Q8IV16 21-151) (domain or fragment)” the stoichiometry N was 2 and 3.
